Assay results: US20240368285A1 (HEFEI TG IMMUNOPHARMA, published 2024)

Legend:
[1] = target: T1, MICA on human tumor cells (A-375, A549, HCT-15, MDA-MB-231) (human, UniProt Q29983 24-383); assay: flow cytometry competition on HCT-15 cells; competitor: Biotin-h5A1002, detected with Alexa-647 streptavidin; % binding ratio of Biotin-h5A1002
T1 construct: whole, on cells
T1 sequence (looked up): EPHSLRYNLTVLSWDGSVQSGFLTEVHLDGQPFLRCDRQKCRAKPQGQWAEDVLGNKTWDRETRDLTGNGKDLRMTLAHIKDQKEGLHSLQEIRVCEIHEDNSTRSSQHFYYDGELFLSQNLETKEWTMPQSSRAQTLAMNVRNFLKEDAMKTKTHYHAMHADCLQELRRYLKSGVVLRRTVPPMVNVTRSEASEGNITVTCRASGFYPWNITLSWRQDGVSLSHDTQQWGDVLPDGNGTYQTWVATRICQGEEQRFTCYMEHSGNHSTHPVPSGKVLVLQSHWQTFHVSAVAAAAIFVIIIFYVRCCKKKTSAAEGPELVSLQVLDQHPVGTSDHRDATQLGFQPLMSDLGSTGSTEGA
Description: HCT-15 cells were diluted to a density of 2×10⁶/mL with PBS and added into a 1.5 ml EP tube in a volume of 100 l/tube. 10 l/tube of goat serum was added into the EP tube, and blocking was conducted at 4° C. for 30 min. […] The tube was incubated at 4° C. for 30 min. A biotin-labeled affinity maturation antibody Biotin-h5A1002 (having a heavy chain sequence as set forth in SEQ ID NO: 13 and a light chain sequence as set forth in SEQ ID NO: 14) was added. The tube was incubated at 4° C. for 30 min. 1 mL of PBS was added into the EP tube, and centrifugation was conducted 4° C. at a rate of 3,500 rpm for 5 min. The supernatant was removed. The EP tube was washed once with the PBS, and the supernatant was removed after centrifugation. The cells were resuspended with PBS in a volume of 100 l/tube. An Alexa-647 labeled Streptavidin secondary antibody (purchased from Biolegend) was added into the tube in a volume of 1 l/tube, and the tube was incubated in the dark at 4° C. for 30 min. The tube was washed twice with PBS, and the supernatant was removed after centrifugation. The cells were resuspended with the PBS in a volume of 200 μl/tube, and detection was conducted by a flow cytometer.

MICB005α3-Fc = target: T2, MICB005α3-Fc; assay: ELISA on coated MICB*005 α3-Fc (1 µg/ml), HRP anti-human Fab secondary, OD450
T2 construct: also called MICB*005-Fc; domain α3 of MICB-005 Fc fusion protein
T2 sequence (chain, as listed by the source limits assumed): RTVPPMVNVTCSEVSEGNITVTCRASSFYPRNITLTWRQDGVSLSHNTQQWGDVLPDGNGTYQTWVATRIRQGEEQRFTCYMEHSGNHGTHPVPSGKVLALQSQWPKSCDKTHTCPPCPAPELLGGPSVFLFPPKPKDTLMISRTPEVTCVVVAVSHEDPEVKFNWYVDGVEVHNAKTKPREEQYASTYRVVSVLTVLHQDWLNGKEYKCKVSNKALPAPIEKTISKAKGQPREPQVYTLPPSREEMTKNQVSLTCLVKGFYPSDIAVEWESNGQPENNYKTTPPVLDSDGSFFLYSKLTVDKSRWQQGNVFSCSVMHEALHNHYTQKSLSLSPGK

MICA005α3-Fc = target: T3, MICA005α3-Fc (human); assay: ELISA on coated MICA*005 α3-Fc (1 µg/ml), HRP anti-human Fab secondary, OD450
T3 construct: also called MICA*005-Fc; domain α3 of MICA-005 Fc fusion protein
T3 sequence (chain, as listed by the source limits assumed): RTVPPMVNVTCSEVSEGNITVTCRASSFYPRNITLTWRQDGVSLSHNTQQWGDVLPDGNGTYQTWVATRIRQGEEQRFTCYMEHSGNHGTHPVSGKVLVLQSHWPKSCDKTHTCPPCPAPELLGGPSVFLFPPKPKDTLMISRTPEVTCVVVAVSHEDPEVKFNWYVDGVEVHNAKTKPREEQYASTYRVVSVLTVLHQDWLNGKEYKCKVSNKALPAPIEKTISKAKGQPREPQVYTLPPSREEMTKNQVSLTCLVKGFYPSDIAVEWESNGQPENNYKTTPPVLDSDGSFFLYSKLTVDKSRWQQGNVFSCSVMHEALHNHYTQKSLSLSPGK
Description: After the antibodies were added, signal intensity was used for judging the binding characteristics of the antibodies and MICA and MICB.
The fusion proteins (produced in the Applicant's laboratory; an amino acid sequence of MICA002α3-Fc is as set forth in SEQ ID NO: 22; an amino acid sequence of MICA005α3-Fc is as set forth in SEQ ID NO: 24; an amino acid sequence of MICA008α3-Fc is as set forth in SEQ ID NO: 25; an amino acid sequence of MICA004α3-Fc is as set forth in SEQ ID NO: 23; an amino acid sequence of MICB001α3-Fc is as set forth in SEQ ID NO: 26; and an amino acid sequence of MICB005α3-Fc is as set forth in SEQ ID NO: 27) were diluted to a concentration of 1 μg/ml with PBS and then added into a 96-well plate in a volume of 100 μl/well. The plate was placed at 4° C. overnight. The PBS in the 96-well plate was removed by sucking. After the plate was washed with PBST (that is, PBS having a pH value of 7.2 included 0.1 volume % of Tween 20) for 6 times, PBS containing 10% of BSA was added in a volume of 200 μl/well. The plate was incubated at 37° C. for 2 hours for blocking. The blocking solution was removed. […]

[2] = target: T1, MICA on human tumor cells (A-375, A549, …); assay: flow cytometry on MDA-MB-231 cells, Alexa-647 goat anti-human secondary, % binding ratio
Description: (2) Tumor cells were diluted to a density of 2×10⁶/mL with PBS and added into a 1.5 ml EP tube in a volume of 100 l/tube. 10 l/tube of goat serum was added into the EP tube; and blocking was conducted at 4° C. for 30 min. […] The tube was incubated at 4° C. for 30 min. 1 mL of PBS was added into the EP tube, and centrifugation was conducted 4° C. at a rate of 3,500 rpm for 5 min. The supernatant was removed. Then, the EP tube was washed once with the PBS, and the supernatant was removed after centrifugation. The cells were resuspended with PBS in a volume of 100 l/tube. An Alexa-647 labeled goat anti-human secondary antibody (purchased from Jackson lab) was added into the tube in a volume of 1 l/tube, and the tube was incubated in the dark at 4° C. for 30 min. The tube was washed twice with PBS, and the supernatant was removed after centrifugation. The cells were resuspended with the PBS in a volume of 200 l/tube, and detection was conducted by a flow cytometer. The results are as shown in FIG. 17A and FIG. 17B, FIG. 18A and FIG. 18B, FIG. 19A and FIG. 19B, and FIG. 20A and FIG. 20B.

- IC50 (read off the curve) [1]: ~1 µg/mL
- EC50 (read off the curve) (MICB005α3-Fc): ~0.04 µg/mL
- EC50 (read off the curve) (MICA005α3-Fc): ~0.07 µg/mL
- EC50 (read off the curve) [2]: ~0.3 µg/mL
B1: affinity maturation antibody h5A1002 (antibody, V domains shown)
VH: QVQLQESGPGLVKPSETLSLTCTVSGFSLTTYGGHWIRQPPGKGLEWIGMIWTDGWTDYNAAFISRVTISVDTSKNQFSLKLSSVTAADTAVYYCARKGHGYYYAMDYWGQGTLVTVSS
VL: EIVLTQSPGTLSLSPGERATLSCTASSSVSSSYLHWYQQKPGQAPRLLIYSTSNLISGIPDRFSGSGSGTDFTLTISRLEPEDFAVYYCHQYHRSPFTFGQGTKLEIKR
notes: Human IgG1, kappa; also called h5A1002-hIgG1
